For the assay, the target named is Cynomolgus monkey Tau monomer (cynomolgus monkey). The assay is described as follows: SPR 37C, hIgG captured, cyno Tau monomer 0.1-33.3 nM.
Cynomolgus monkey Tau monomer (cynomolgus monkey), sequence (P10636 other isoform, or with tags, fused parts or gaps): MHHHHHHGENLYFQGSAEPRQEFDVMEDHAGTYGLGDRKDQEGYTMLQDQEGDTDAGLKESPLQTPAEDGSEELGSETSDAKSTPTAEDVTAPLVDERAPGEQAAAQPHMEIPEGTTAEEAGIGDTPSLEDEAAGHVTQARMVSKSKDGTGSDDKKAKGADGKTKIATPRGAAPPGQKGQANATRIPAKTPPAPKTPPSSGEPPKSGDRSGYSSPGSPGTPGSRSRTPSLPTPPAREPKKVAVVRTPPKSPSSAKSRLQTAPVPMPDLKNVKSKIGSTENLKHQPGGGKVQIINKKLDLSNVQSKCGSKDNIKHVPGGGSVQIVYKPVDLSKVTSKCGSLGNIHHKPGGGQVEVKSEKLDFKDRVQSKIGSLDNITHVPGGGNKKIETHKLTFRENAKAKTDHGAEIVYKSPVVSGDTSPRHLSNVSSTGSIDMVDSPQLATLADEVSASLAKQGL

B1: hu37D3-H9.v76 (antibody, V domains shown)
VH: EVQLVESGGGLVQPGGSLRLSCAASGLIFRSYGMSWVRQAPGKGLEWVATINSGGTRTYYPDSVKGRFTISRDNSKNTLYLQMNSLRAEDTAVYYCANSYSGAMDYWGQGTLVTVSS
VL: DDLLTQTPLSLPVTPGQPASISCRSSQSIVHSNGNTYLEWYLQKPGQSPQLLIYKVSNRFSGVPDRFSGSGSGTDFTLKISRVEAEDVGVYYCFQGTLVPWTFGQGTKVEIK
Take B1: the Kd (in general, the concentration at which binding is half-saturated) was 0.1 nM; the koff (as a rule, the rate constant with which the complex falls apart) was found to be 0.00114 s⁻¹; the kon (usually the second-order rate constant of association) was found to be 9.27e+06 M⁻¹ s⁻¹.

B2: hu37D3-H9.v93 (antibody, V domains shown)
VH: EVQLVESGGGLVQPGGSLRLSCAASGLIFRSYGMSWVRQAPGKGLEWVATINSGGTRTYYPDSVKGRFTISRDNSKNTLYLQMNSLRAEDTAVYYCANSYSGAMDYWGQGTLVTVSS
VL: EDLLTQSPSSLSASVGDRVTITCRSSQSIVHSNGNTYLEWYQQKPGKSPKLLIYKVSNRFSGVPSRFSGSGSGTDFTLTISSLQPEDFATYYCFQGTLVPWTFGQGTKVEIK
On to B2, for which the Kd came to 0.1 nM, the koff came out at 0.00178 s⁻¹ and the kon was determined as 1.29e+07 M⁻¹ s⁻¹.

B3: hu37D3-H9.v83 (antibody, V domains shown)
VH: EVQLLESGGGLVQPGGSLRLSCAASGLIFRSYGMSWVRQAPGKGLEWVATINSGGTRTYYPDSVKGRFTISRDNSKNTLYLQMNSLRAEDTAVYYCANSYSGAMDYWGQGTLVTVSS
VL: DDLLTQSPLSLPVTLGQPASISCRSSQSIVHSNGNTYLEWYQQRPGQSPRLLIYKVSNRFSGVPDRFSGSGSGTDFTLKISRVEAEDVGVYYCFQGTLVPWTFGQGTKVEIK
Turning to B3, the Kd was found to be 0.1 nM, the koff was 0.00114 s⁻¹ and the kon was 9.55e+06 M⁻¹ s⁻¹.

The values are drawn from US20230043289A1.
